Results taken from patent US20220226442A1.

Biological target: IL-2 receptors on the cell surface of human PBMC populations (Tregs, CD25^high T helper cells, NK cells, cytotoxic T cells)
Assay: cell-based or functional assay

Substance	Ratio (CD25^high T helper EC50 / Treg EC50)	pSTAT5 EC50, Treg [nM]	pSTAT5 Max. Signal, Treg (relative to V69A/Q74P IL-2-Fc)
IL-2-Fc fusion protein F42K/V69A/Q74P, (G4S)4 linker, IgG1 Fc N297G	15.9		
IL-2-Fc fusion protein F42Q/V69A/Q74P, (G4S)4 linker, IgG1 Fc N297G	25.9		
IL-2-Fc fusion protein K35E/V69A/Q74P, (G4S)4 linker, IgG1 Fc N297G	300		
IL-2-Fc fusion protein R38E/V69A/Q74P, (G4S)4 linker, IgG1 Fc N297G	9		
IL-2-Fc fusion protein R38N/V69A/Q74P, (G4S)4 linker, IgG1 Fc N297G	2820		
IL-2-Fc fusion protein R38Q/V69A/Q74P, (G4S)4 linker, IgG1 Fc N297G	28.4		
irrelevant (non-binding) antibody with IL-2 N88D fused to its C-terminus		0.37	0.5
